Consider 131 substances from the supplement of paper PMC12042874.

± gives the uncertainty stated by the source.

This data set in a line: amyloid nucleation score (Sup35N fusion, yeast selection) (log enrichment); library NNK3; higher = more nucleation; inactive = no reads after selection. The method, boiled down: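 On medium lacking adenine and uracil, psi-negative yeast expressing peptides of 20 random codons fused to Sup35N were grown 7 days at 30°C after a 24-hour induction with 100 μM copper sulfate. Illumina sequencing of input and output plasmid inserts gave the reads, and sequences under 100 input reads were excluded. The nucleation score is the DiMSum log enrichment of output over input reads, centred on the mode score of non-aggregating sequences.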

As to HFSSYDTDRINAVPKIWTIR, the amyloid nucleation score result is “inactive”.

For the substance RSQRKTFHWKFWRPSCSDQW, the amyloid nucleation score was 0.868 ± 0.12.

For RAVHR, the amyloid nucleation score entry was “inactive”.

Consider PMVISHMGLFFLKVGISR, for which the amyloid nucleation score result was “inactive”.

As for NATIFFMQ, the amyloid nucleation score turned out to be 0.605 ± 0.24.

CVFNMLEQ: the amyloid nucleation score result was “inactive”.

For LLIGNY, the amyloid nucleation score result was “inactive”.

FRLLLSKMAYFRADMTYDDF: the amyloid nucleation score result was “inactive”.

FFEFRSASYWGPSQYRNMCT: the amyloid nucleation score result is “inactive”.

TRASRRKSHSTSMDLPIRRH: the amyloid nucleation score entry was “inactive”.

Take VRNLLKMTFR: the amyloid nucleation score result is “inactive”.

With VEAEHYSRRNEKVFRSNMKW, the amyloid nucleation score entry was “inactive”.

Turning to FVLVHSFLECHYIHVTTERL, the amyloid nucleation score entry was “inactive”.

Regarding GNLSFTPGITRKKSVLEYRH, the amyloid nucleation score entry was “inactive”.

As for GFVIYLNVALLVRSNINRVC, the amyloid nucleation score entry is “inactive”.

Substance GRLSVFLGYIHGRCYGALGR displayed an amyloid nucleation score of -0.635 ± 1.9.

As to MVDVNLAKRNGMNQSLHGNS, the amyloid nucleation score result is “inactive”.

Turning to SFHLQVLPRSGVLACISTGF, the amyloid nucleation score entry is “inactive”.

In the case of TSNALYLLLLRHLYNMLLHV, the amyloid nucleation score result is “inactive”.

For the substance LKFFVYLLNLYEDFLPVRFS, the amyloid nucleation score entry is “inactive”.

NCCPIIPVDYNYNRLPIIVG: the amyloid nucleation score result is “inactive”.

With GYRLRYNFVVFLM, the amyloid nucleation score is 1.02 ± 0.21.

For VILNCR, the amyloid nucleation score result was “inactive”.

Turning to FVIVYAMCKLYLMEKMRLIS, the amyloid nucleation score result was “inactive”.

As for RMRDRSGMGRTFHHGTQTTV, the amyloid nucleation score result is “inactive”.

As to FNSKTLKLTFFMVVPEYCWW, the amyloid nucleation score entry is “inactive”.

The substance KRANSE showed an amyloid nucleation score of 1.11 ± 0.1.

Regarding ILSKVNSKSDKRSF, the amyloid nucleation score entry was “inactive”.

Take TNVSEFQALTWMNTWYSAFS: the amyloid nucleation score result was “inactive”.

As for NFTVFYLRC, the amyloid nucleation score turned out to be 1.67 ± 0.12.

In the case of SQWIIGFTVTCFSSCKILKM, the amyloid nucleation score entry was “inactive”.

Take VAETYLRTA: the amyloid nucleation score entry is “inactive”.

Consider HNISAIYDRNRF, for which the amyloid nucleation score result was “inactive”.

With RCVIMTPLAIREHDNDASCQ, the amyloid nucleation score result was “inactive”.

Consider LRMGVNILLAMGCFSAYPGE, for which the amyloid nucleation score came to 0.171 ± 0.39.

Consider EYMCACSLEILVL, for which the amyloid nucleation score entry is “inactive”.

On to VVMWAPLRYDFKSKDRAVES, for which the amyloid nucleation score result was “inactive”.

Consider GISSKRMFLSLSAFERSVYI, for which the amyloid nucleation score entry was “inactive”.

Turning to VEELKYRHNALNFRKNVQSL, the amyloid nucleation score result is “inactive”.

DVNLRTSHYAF: the amyloid nucleation score entry was “inactive”.

Turning to TIWSCMCVMWITRPSNTRRP, the amyloid nucleation score result is “inactive”.

On to ELVYDLDRYDGGLGVKNEEW, for which the amyloid nucleation score result was “inactive”.

LYVFLLNECSWRAPGASI: the amyloid nucleation score entry is “inactive”.

As for SYSGIYILSSFAATSSFILS, the amyloid nucleation score is 0.46 ± 0.2.

For SVRRLGGLLLYCNHFMFD, the amyloid nucleation score result is “inactive”.

TKFIMKRLLVERVSCFLRSH: the amyloid nucleation score result was “inactive”.

Consider LFKDSIVLIGILYCMFNLHD, for which the amyloid nucleation score entry was “inactive”.

For NNLTKM, the amyloid nucleation score entry is “inactive”.

For VHELIDHKMKMIGLVFGLSI, the amyloid nucleation score result is “inactive”.

For the substance FEWLMGRHLYISLRLHMRRS, the amyloid nucleation score result is “inactive”.

Turning to FYLFIVVRMVVLVTDVIVVG, the amyloid nucleation score result was “inactive”.

Take IHCGACYSACWVRLGAWMTC: the amyloid nucleation score entry is “inactive”.

FRSVVWFCGRVLQTGCCGLN: the amyloid nucleation score entry is “inactive”.

With WLSDNSSNDLQYHYSSSKIM, the amyloid nucleation score entry was “inactive”.

With MSRGCCINLTLQIRVFWNTM, the amyloid nucleation score entry is “inactive”.

For the substance SYTPHY, the amyloid nucleation score entry was “inactive”.

Regarding HVAKVGTFNWTHNGYDNCFV, the amyloid nucleation score result was “inactive”.

For DRQLDDGGTRNKFIKCLVAR, the amyloid nucleation score entry is “inactive”.

As to SVKTGYVDRPNLRTTFYGCL, the amyloid nucleation score result was “inactive”.

Turning to WNSHQREEYTVDCYVVSVKL, the amyloid nucleation score was -0.023 ± 0.6.

With ELLSCLKIWDIL, the amyloid nucleation score result is “inactive”.

Regarding SSCKWLFTSSHPSHPEAS, the amyloid nucleation score result was “inactive”.

In the case of SFGIGSI, the amyloid nucleation score result was “inactive”.

In the case of DYIYILSW, the amyloid nucleation score entry was “inactive”.

On to NCTNFALVSNLASTRTIADW, for which the amyloid nucleation score entry was “inactive”.

Regarding RKDYGMLYFFLSSRKCTHAI, the amyloid nucleation score entry is “inactive”.

As for FLRLHLFHSWTISLSSYRSV, the amyloid nucleation score result was “inactive”.

CCIIYVVRRGE displayed an amyloid nucleation score of 1.28 ± 0.096.

As for LPRLYDFLGLVWVIA, the amyloid nucleation score result is “inactive”.

As for SFRDPHLTHSSVDCRTVYHI, the amyloid nucleation score result is “inactive”.

In the case of YSMFN, the amyloid nucleation score result was “inactive”.

As to FGFPTFFSMTV, the amyloid nucleation score entry is “inactive”.

For the substance LVLPVSFRVCFREVIIHMKY, the amyloid nucleation score entry is “inactive”.

In the case of FFVLGRSTMSWLR, the amyloid nucleation score result is “inactive”.

Consider FLSSCKLMGFMS, for which the amyloid nucleation score result was “inactive”.

As for GLPLEWDDSWNVKIVLLCWS, the amyloid nucleation score entry is “inactive”.

FCRMVPLIEWSVTRFRDCVG: the amyloid nucleation score result is “inactive”.

For the substance IWWKNIGCAKYWVIPLRQWA, the amyloid nucleation score entry is “inactive”.

With CANQGGCIICDATYQCVIIA, the amyloid nucleation score amounted to 0.649 ± 0.14.

In the case of RKAGR, the amyloid nucleation score entry was “inactive”.

In the case of MEVLLVIYSDCERARSDTNI, the amyloid nucleation score entry was “inactive”.

The substance KYYWFMF registered an amyloid nucleation score of 1.78 ± 0.096.

WSTMMNNWCLLWGCKLKPKL: the amyloid nucleation score entry was “inactive”.

In turn, FVSRGKLLPNAPGFMWFLLR showed an amyloid nucleation score of -0.533 ± 1.9.

As for LSCYRVFSYCT, the amyloid nucleation score entry is “inactive”.

As to PYLLMWSA, the amyloid nucleation score entry is “inactive”.

With DFRLFFCLYGVYNLRYCFGW, the amyloid nucleation score result is “inactive”.

In the case of ESVRGRLFRV, the amyloid nucleation score entry is “inactive”.

For the substance EVFLIIIVKMVNGLSRESRC, the amyloid nucleation score result is “inactive”.

With SSGNFA, the amyloid nucleation score result is “inactive”.

SIAIHSMLKYNVPLVSRHSG: the amyloid nucleation score result was “inactive”.

As for RSLTLW, the amyloid nucleation score result was “inactive”.

Turning to NLRWV, the amyloid nucleation score came out at 0.478 ± 0.25.

Turning to VYQQSWQVLDFVRWDTERME, the amyloid nucleation score result is “inactive”.

On to SFLPTV, for which the amyloid nucleation score is 0.93 ± 0.23.

Consider ADRVSVIYMS, for which the amyloid nucleation score entry was “inactive”.

With YWSIFTLVVPMRFAFIWS, the amyloid nucleation score entry was “inactive”.

Turning to SLSVVMLLKVVVRPSNWWEG, the amyloid nucleation score result is “inactive”.

Regarding HQVGYGLHGPG, the amyloid nucleation score is -0.539 ± 0.96.

For IMNSPKGYTILWRGSLRGIQ, the amyloid nucleation score result was “inactive”.

As for LMGTQVVFDDTDPYTEKGLL, the amyloid nucleation score entry was “inactive”.

For the substance YFYFVTHRDELGMSGPVTWA, the amyloid nucleation score result is “inactive”.

With LVMINCCHVFRKARSTAERQ, the amyloid nucleation score is 2.44 ± 0.071.

Take YSYTILHNFNKCSVKTLIFF: the amyloid nucleation score stood at 2.38 ± 0.058.

As to RSFVVNYWGFSDMLHFCRLC, the amyloid nucleation score entry is “inactive”.

Take FFVFVR: the amyloid nucleation score came out at 1.3 ± 0.15.

Regarding CIYNVKALIQRVWIMIEVTS, the amyloid nucleation score turned out to be 0.707 ± 0.13.

Consider DVLRVPMNEVTNWSIPPY, for which the amyloid nucleation score entry was “inactive”.

Regarding FNDYCSIKKSLTKSMYDLNG, the amyloid nucleation score result is “inactive”.

IFVLVYNISSNTGNYSIGFV had an amyloid nucleation score of 0.934 ± 0.15.

In the case of VSCMLLSRDLCLQSFIWMLL, the amyloid nucleation score entry is “inactive”.

Take VYTGHVGLFV: the amyloid nucleation score entry is “inactive”.

VEHFNGHTRTVGCLFKRDLR: the amyloid nucleation score entry was “inactive”.

For the substance IIEPYTFCFRICVWGGEWIV, the amyloid nucleation score entry is “inactive”.

For the substance VDNWFVFFYGYSGLLYGSHY, the amyloid nucleation score result was “inactive”.

KCISSRARK: the amyloid nucleation score entry was “inactive”.

With LCSSLIM, the amyloid nucleation score entry is “inactive”.

For the substance VINKRRWTSNGNCILEVRHG, the amyloid nucleation score result is “inactive”.

As for SLKGVITSFVRNVFFNRAMY, the amyloid nucleation score entry is “inactive”.

As for GPPLNYEVT, the amyloid nucleation score entry is “inactive”.

For the substance SSDCMDDRCCDNCDSSRLLW, the amyloid nucleation score entry was “inactive”.

For AYIMDSSWWV, the amyloid nucleation score result is “inactive”.

As for YIMSNLFGGNNLFGG, the amyloid nucleation score entry is “inactive”.

For the substance KCMQVVSSRSWVVHWGWKGG, the amyloid nucleation score result is “inactive”.

For the substance WFLVVVTFGWSIGQGQVGA, the amyloid nucleation score was -0.527 ± 1.1.

In the case of LKYEERSGWWSLGSGVCGVV, the amyloid nucleation score result is “inactive”.

On to FFVLYRLRELPPAQLMMKAA, for which the amyloid nucleation score result is “inactive”.

Regarding SAGAQSHSIYRAAVLSACLY, the amyloid nucleation score result was “inactive”.

As for HCDLGESFTALYSFHAVLML, the amyloid nucleation score result is “inactive”.

GLFCLKFKPTQGVPRQKLL: the amyloid nucleation score entry was “inactive”.

For the substance NLWYLVMLISDFCEPRKEWY, the amyloid nucleation score result was “inactive”.
